Experimental data: the supplement of paper PMC9170038

system: MS2 coat protein; assay: apparent KD of MS2 coat protein, switch ON state; designed switch direction (-1 OFF switch, 1 ON switch): -1; higher = weaker reporter binding; settings: FMN input: 0 or 200 uM; Eterna round: R93 (includes R88 designs)
Summary of the method: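 Apparent KD per design is the median of normalised cluster binding-curve fits. Designed RNA switches transcribed on-chip from Illumina sequencing clusters were titrated with SNAP-549-labelled MS2 coat protein in twofold steps from 0.7 or 1.5 nM to 3 µM, with 0.8–1.5 h down to 10–20 min per step. Buffer: 100 mM Tris-HCl pH 7.5, 80 mM KCl, 4 mM MgCl2, without or with constant ligand.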

Sequence	apparent KD of MS2 coat protein [µM]
AAAAGUAGAGGAUAUACAUGAGGAUCACCCAUGUAGAAAGGAAGUGUAUAUAUGGCGUGUAGAAGGCUGCAUGA [Power strip]	0.0293
AAGAACGAAGGAUAUACAUGAGGAUCACCCAUGUAAAAGAAAGAAAAGGGAAAGAAAAGUAGAAGGUCGAAGAA [Banenre Merenptah]	0.0215
CGGAGGAAAGGAUAUACACAAUAAAAGAAGUGAUCCUUGAGACAUGAGGAUCACCCAUGUAGAAGGUUCACUGA [Zaza]	0.0219
AAAAAACAUGAGGAUCACCCAUGUGAGGAUAUGCAAAACCCAAAUAAAAAGAGAAAAAGCAGAAGGCACAAAAA [wbt round 1 mod 2]	0.0235
GUGUACAGAGGAUAUACAUAAGCAUGGAAACAUGCAAGAUCACAUGAGGAUCACCCAUGUAGAAGGCUGUACAC [Ex2: 738]	0.342
AAAAAGUCAGGAUAUGUACGAAAAAAUAAAAAAAUAAAAGUACAGAAGGGACAUGAGGAUCACCCAUGUCAGGG [EX4 393: Minimal 5]	0.0675
AACAAACAUGAGGAUCACCCAUGUCAGGAUAUGCAAACAACAAACAACAAACAACAAAGCAGAAGGGAUAGGAA [63%, Olong, 4]	0.0271
AACAGUACAGGAUAUACAUGAGGAUCACCCAUGUGGGAAAAAAGAUCGAGAGAUCAAUGUAGAAGGGUACUGGA [JL In the Red 03]	0.161
AAGAAGGCAGGAUAUACAAAAUAAAAGAAAAGAAAGAAAGAACAUGAGGAUCACCCAUGUAGAAGGGUCAAGAA [Sankhenre Sewadjtu]	0.0479
CAGUACUGAGGAUAUACAUGAGGAUCACCCAUGUGAAAAAGCUACGAAAGUAGCAAAUGUAGAAGGCAGUACUG [Ex3: 806]	0.0289
AAGGGACAUGAGGAUCACCCAUGUUAGGAUAUGCUAUGGAAAAUAAAAAUAAAACAUAGCAGAAGGAACAAAAA [Denovo 8]	0.0392
AAAAAGUUAGGAUAUACAUGAGGAUCACCCAUGUGCACAUAUGGAGAAUAUGGUGGUAGUAGAAGGGACAAAAA [EX2 Malc#17]	0.0339
AAAAAGGGAGGAUAUACAUGAGGAUCACCCAUGUAACAGACGAAAAAGAGUCUGAAAUGUAGAAGGCCCAAAAA [65%, Moding Exclusion3-cac2, 5]	0.0246
UGGGAGUCAGGAUAUACGAACAUGUCGCCAGAUGUCAAGGUACAUGAGGAUCACCCAUGUAGAAGGGAGGAGAA [salish99-Ex2-30(!)]	0.0971
AACUGACAUGAGGAUCACCCAUGUCAGGAUAUGCUUCUAGGAAAAAUAAAAACUAGAUGCAGAAGGGAUAUGGG [Design 38]	0.0222
AAAAAGUGAGGAUAUUCGGAUAGGAAAACGAAAACCUAUCCGAAGAAGGCACAUGAGGAUCACCCAUGUGAAAA [67% Ecls-II - Early G + late G segment 1]	0.0275
AAGUACUCAGGAUAUACAUGAGGAUCACCCAUGUGAUAAAAGCGUAAAAAACGCACAUGUAGAAGGGAGUACAA [JL In thr Red Again 2]	0.14
AAAAAGGUAGGAUAUACAUGAGGAUCACCCAUGUAAAAAAAAACAGAAAAAAACAAAUGUAGAAGGGCCAAAAA [Ex3 Malc#5]	0.0259
AAGAUCAGAGGAUAUACAUAAGGUGAUGAAAACAUCGCCAAACAUGAGGAUCACCCAUGUAGAAGGCUGAUCAA [JL EX2 1]	0.118
AAAACGUGAGGAUAUGCACCAAAAAAGGUAUUUCGGGUACGACAUGAGGAUCACCCAUGUAGAAGGCACGAAAA [Frodo Flailing 13 - Jieux - Exclusion 2]	0.0228
GAGAUACAUGAGGAUCACCCAUGUGAGGAUAUCGGUUGGAGGAGGUGGAGGUUGAGUACGAGAAGGCACGGAUG [salish99-Ex1-10]	0.0249
AAAAAACAUGAGGAUCACCCAUGUCAGGAUAUACAAAAUAAAAUAAAAAUAAAAUAAAGUAGAAGGGACAAAAA [May 8]	0.0285
AACAGUACAGGAUAUACAUGAGGAUCACCCAUGUGAGAGGAAUAAAACAAAAAUAAAAGUAGAAGGGUACUGGA [Ruby 45]	0.035

Sequence	apparent KD of MS2 coat protein [µM]
AGUUGGCGAGGAUAUACAUGAGGAUCACCCAUGUGAGAGAAAAAAGUGAGAAAGAAAAGUAGAAGGCGCUGACU [salish99-ex3-06]	0.0464
AAAAAACAUGAGGAUCACCCAUGUAAGGAUAUACAAAACCCAUAUAAAAAGGGAAAAAGUAGAAGGUGCAAAAA [wbt round 1 mod 7]	0.0225
CUCUAGUGAGGAUAUCGAAGAAAAGAAGAGAAAGAAAAGAACGAGAAGGCACAUGAGGAUCACCCAUGUAAGAA [EteRNA is fun!]	0.0236
AAAAAACAUGAGGAUCACCCAUGUGAGGAUAUGCUAUGGAAAAUAAAAAUAAAACAUAGCAGAAGGCACACCAA [Denovo 16]	0.0314
AUCAUGUAAGGAUAUGUAAGAAAAGAAAAGAAAGAAAAGAAACAGAAGGUACAUGAGGAUCACCCAUGUAAGAA [EteRNA is fun!]	0.0265
AAGAACUGAGGAUAUACUAAAGAAAUGAAAAGAAAGAAAGAACAUGAGGAUCACCCAUGUAGAAGGCAGAAGAA [Ya'ammu Nubwoserre]	0.0299
CUCAAGUUAGGAUAUGGAAGAAAAGAAGAGAAAGAAAAGAACCAGAAGGAACAUGAGGAUCACCCAUGUAAGAA [EteRNA is fun!]	0.0581
GAAGAACAUGAGGAUCACCCAUGUCAGGAUAUACAGAAGGGAAUAAUAUAACCUGGAAGUAGAAGGGACAAGAA [Ex 1 May 44]	0.0302
AGGAAACAUGAGGAUCACCCAUGUGAGGAUAUUCAAAAGAAAAGAAAAGAAAGAAGAAGAAGAAGGUACAAGAA [Neferefre]	0.0283
GAAAAACAUGAGGAUCACCCAUGUGAGGAUAUACGAAAGUAGAAGGCACUAAAAGAAAAGAGAAGGAGAAAAGA [Meechl Ex1 R2 m2]	0.0199
AAGAAGUCAGGAUAUGCUGCUCGUCACGAAAGUGAUGAGUAGCAGAAGGGACAUGAGGAUCACCCAUGUAAAGA [Exclusion 4.1 (Exclusion4-cac2 - the real original)]	0.0552
GGGAAACAUGAGGAUCACCCAUGUGAGGAUAUGCUAUGGAAAAUAAAAAUAAAACAUAGCAGAAGGCAUAAAAA [Denovo 11]	0.0306
AAAAAACAUGAGGAUCACCCAUGUCAGGAUAUUCGAAAAAAAAAAAAAAAAAAAAAAAGGAGAAGGGACGAAAA [DR Excl. 1]	0.0434
GAAACUGGAGGAUAUACGAACAUGUCAAAAGACGUGAAGGGACAUGAGGAUCACCCAUGUAGAAGGCUAGAAAG [Mat - Exclusion 2 - JL mod - D99]	0.0749
AAAACUCGAGGAUAUACGAACAUGUCAAAAGACGUGAAGGGACAUGAGGAUCACCCAUGUAGAAGGCGAGAAAA [Mat - Exclusion 2 - JL-Eli mod - D45]	0.0554
AAAAAGGCAGGAUAUACAAAAAAAUUUUUAAAAAAAAAAAAACAUGAGGAUCACCCAUGUAGAAGGGCCAAAAA [Ex 2.1]	0.052
ACGUACUGAGGAUAUACGAACAUGUCAAAAGACGUGAAGGGACAUGAGGAUCACCCAUGUAGAAGGCAGUACGA [Mat - Exclusion 2 - JL mod - D7]	0.0607
GACAUGCUAGGAUAUACAGGACAAAUUGGGCAUCCGCAUGGACAUGAGGAUCACCCAUGUAGAAGGAGUAGAAA [Inonmatixe]	0.368
AAGAACGUAGGAUAUACAUGAGGAUCACCCAUGUAAAAGAAAGAGGGAAAAGAGAAAAGUAGAAGGACGAAGAA [Cleopatra II]	0.0261
CUCAAGUAAGGAUAUACAAGAAAAGAAGAGAAAGAAAAGAAGUAGAAGGUACAUGAGGAUCACCCAUGUAAGAA [EteRNA is fun!]	0.0267
AAAAAACAUGAGGAUCACCCAUGUAAGGAUAUGUGAAAAAAAAAAUAAAAAAAAAAAAACAGAAGGUACAAAAA [LROPPY Exclusion 1 - v02_deltaG=3.34]	0.0452
CUCGUGUUAGGAUAUGGAUAGCCGUUUGACGAGCGAGGGCACUAGAAGGAACAUGAGGAUCACCCAUGUAAAAA [Velema]	0.0294
